T1: EEF1A1 (UniProt P68104 2-462)
T1 construct: Endogenous protein found in the co-IP by mass spectrometry; also called NP_001393.1
T1 sequence (looked up): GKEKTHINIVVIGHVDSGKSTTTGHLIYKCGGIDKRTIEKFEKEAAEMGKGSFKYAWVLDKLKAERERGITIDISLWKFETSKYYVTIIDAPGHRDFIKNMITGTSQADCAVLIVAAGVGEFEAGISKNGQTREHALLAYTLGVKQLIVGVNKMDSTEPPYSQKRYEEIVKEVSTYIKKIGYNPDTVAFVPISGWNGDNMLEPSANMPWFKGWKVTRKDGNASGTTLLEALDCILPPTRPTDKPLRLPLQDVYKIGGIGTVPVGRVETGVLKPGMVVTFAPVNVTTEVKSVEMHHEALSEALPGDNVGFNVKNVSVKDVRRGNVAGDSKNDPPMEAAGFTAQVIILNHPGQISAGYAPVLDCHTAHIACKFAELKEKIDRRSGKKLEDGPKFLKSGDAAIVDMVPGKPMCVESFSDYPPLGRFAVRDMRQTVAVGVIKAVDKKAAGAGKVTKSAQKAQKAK

T2: HNRNPF (UniProt P52597 2-415)
T2 construct: Endogenous protein found in the co-IP by mass spectrometry; also called NP_001091676.1
T2 sequence (looked up): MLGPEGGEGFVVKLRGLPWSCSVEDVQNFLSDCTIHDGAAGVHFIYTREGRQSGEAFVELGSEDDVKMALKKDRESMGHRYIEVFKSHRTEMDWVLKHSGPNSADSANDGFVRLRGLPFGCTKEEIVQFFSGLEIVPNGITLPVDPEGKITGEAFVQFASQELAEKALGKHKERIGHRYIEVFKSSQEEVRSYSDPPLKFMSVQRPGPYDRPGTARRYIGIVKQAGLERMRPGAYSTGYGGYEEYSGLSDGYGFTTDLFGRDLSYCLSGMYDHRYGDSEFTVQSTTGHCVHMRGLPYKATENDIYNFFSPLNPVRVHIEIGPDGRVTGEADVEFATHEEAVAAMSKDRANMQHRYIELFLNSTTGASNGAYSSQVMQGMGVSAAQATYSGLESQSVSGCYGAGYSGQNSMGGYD


Key:
[1] = target: T3, SUPT16H (human, UniProt Q9Y5B9 2-1047); assay: co-IP with mouse anti-FLAG from lysate of cells overexpressing N-FLAG B3GNT2, then mass spectrometry
T3 construct: Identified by mass spectrometry in the co-IP; also called NP_009123.1 (+1)
T3 sequence (Q9Y5B9 2-1047 limits assumed): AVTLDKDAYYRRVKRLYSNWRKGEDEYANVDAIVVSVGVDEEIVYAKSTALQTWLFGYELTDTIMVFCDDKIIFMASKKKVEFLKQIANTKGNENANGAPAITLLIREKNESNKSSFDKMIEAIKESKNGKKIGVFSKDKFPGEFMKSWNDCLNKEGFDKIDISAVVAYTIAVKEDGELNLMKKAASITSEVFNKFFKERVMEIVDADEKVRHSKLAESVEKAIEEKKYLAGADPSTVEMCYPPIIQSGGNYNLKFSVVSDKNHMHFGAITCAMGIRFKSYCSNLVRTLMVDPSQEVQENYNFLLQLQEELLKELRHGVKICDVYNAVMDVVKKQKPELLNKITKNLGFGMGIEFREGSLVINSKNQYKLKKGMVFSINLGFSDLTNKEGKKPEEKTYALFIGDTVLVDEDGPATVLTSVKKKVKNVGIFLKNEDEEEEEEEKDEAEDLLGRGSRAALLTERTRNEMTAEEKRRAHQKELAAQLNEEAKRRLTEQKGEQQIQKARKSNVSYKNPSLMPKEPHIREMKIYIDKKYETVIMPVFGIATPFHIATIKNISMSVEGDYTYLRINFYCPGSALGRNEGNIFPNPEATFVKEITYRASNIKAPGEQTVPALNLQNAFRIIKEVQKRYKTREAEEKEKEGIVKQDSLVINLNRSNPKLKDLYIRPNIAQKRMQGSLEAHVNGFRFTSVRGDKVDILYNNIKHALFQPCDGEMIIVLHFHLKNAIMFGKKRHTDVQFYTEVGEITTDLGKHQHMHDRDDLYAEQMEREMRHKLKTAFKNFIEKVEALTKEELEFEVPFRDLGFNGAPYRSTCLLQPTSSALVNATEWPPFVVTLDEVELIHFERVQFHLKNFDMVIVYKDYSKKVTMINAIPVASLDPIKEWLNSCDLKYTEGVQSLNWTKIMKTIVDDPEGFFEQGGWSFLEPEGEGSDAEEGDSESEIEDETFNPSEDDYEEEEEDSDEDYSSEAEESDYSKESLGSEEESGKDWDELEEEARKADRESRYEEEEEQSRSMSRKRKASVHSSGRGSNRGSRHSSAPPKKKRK
Procedure: (§1) Cells were plated in 10-cm cell culture dishes and grown to 60-80% confluency. For each condition, two biological replicates were harvested for co-IP. Cells were washed with PBS and 4 mL of lysis buffer (20 mM HEPES, 1% Triton X-100, 150 mM NaCl, 1 mM EDTA, and 10% glycerol) containing protease inhibitor cocktail was added. Cells were scraped and lysate was incubated at 4° C. under rotary agitation for 1 h. Lysate was centrifuged at 14,000×g for 10 min at 4° C. Supernatant was transferred to a new tube and an aliquot was taken as the input. […] For Western blots, 10 μg/mL Chicken Anti-FLAG (Aves labs ET-DY100) and IgY control (R&D Systems AB-101-C) antibodies were biotinylated (Thermo Fisher Scientific 90407) and added to the respective conditions. Lysates with antibodies were incubated at 4° C. under rotary agitation overnight. For each mL of lysate, 50 μL of Pierce Protein A/G Magnetic Beads (Mass spectrometry; Thermo Fisher Scientific 88803) or Pierce Streptavidin Magnetic Beads (Western blot; Thermo Fisher Scientific 88817) was washed twice with lysis buffer. Lysates with antibodies were added to the beads and incubated at 4° C. under rotary agitation for 4 h. Beads were washed with lysis buffer 3 times and resuspended in lysis buffer for storage.
(§2) Magnetic beads were resuspended in 100 mM Tris pH 7.8, reduced, alkylated and digested with trypsin at 37° ° C. overnight. This solution was subjected to solid phase extraction to concentrate the peptides and remove unwanted reagents followed by injection onto a Shimadzu HPLC with fraction collector. Eight fractions were collected and after concentration were injected on a Waters NanoAcquity HPLC equipped with a self-packed Aeris 3 μm C18 analytical column 0.075 mm by 20 cm, (Phenomenex). Peptides were eluted using standard reverse-phase gradients. The effluent from the column was analyzed using a Thermo Orbitrap Elite mass spectrometer (nanospray configuration) operated in a data dependent manner for 54 minutes. The resulting fragmentation spectra were correlated against the known database using Proteome Discover 1.4 (Thermo Fisher Scientific).

[2] = target: T4, KHDRBS1 (human, UniProt Q07666 1-443); assay: as above
T4 construct: Identified by mass spectrometry in the co-IP; also called NP_006550.1
T4 sequence (Q07666 whole entry): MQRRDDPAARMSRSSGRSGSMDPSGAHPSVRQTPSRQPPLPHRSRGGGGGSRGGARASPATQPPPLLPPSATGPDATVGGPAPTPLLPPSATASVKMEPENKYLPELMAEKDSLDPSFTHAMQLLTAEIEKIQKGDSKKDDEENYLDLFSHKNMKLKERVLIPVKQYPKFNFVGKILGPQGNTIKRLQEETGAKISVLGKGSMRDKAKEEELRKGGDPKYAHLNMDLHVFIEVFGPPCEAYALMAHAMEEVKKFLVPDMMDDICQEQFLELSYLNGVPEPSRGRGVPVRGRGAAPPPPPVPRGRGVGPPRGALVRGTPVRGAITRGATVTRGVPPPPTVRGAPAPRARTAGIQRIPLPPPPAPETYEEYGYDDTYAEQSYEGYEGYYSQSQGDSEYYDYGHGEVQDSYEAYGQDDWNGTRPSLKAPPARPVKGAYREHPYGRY
Procedure: as §1, §2

[3] = target: T5, TAF15 (human, UniProt Q92804-2 1-589, limits assumed); assay: as above
T5 construct: Identified by mass spectrometry in the co-IP; also called NP_003478.1 (+1)
T5 sequence (Q92804 other isoform, or with tags, fused parts or gaps limits assumed): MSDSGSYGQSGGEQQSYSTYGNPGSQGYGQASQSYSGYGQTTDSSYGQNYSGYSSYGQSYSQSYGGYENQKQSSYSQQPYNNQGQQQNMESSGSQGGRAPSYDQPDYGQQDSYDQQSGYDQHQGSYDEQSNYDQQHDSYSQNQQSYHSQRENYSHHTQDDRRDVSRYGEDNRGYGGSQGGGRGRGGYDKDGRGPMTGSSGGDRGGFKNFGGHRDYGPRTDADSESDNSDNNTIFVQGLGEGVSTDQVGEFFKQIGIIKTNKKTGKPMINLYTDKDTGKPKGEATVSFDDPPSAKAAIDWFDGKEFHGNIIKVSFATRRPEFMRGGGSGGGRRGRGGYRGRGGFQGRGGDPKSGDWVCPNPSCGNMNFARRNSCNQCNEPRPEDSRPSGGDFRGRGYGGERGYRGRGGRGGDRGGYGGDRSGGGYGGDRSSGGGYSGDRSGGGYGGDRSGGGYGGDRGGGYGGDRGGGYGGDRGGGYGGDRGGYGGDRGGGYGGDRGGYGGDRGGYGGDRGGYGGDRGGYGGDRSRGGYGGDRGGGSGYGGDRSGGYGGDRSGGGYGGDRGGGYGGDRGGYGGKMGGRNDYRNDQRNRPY
Procedure: as §1, §2

[4] = target: RPL36 (UniProt Q9Y3U8 2-105); assay: co-IP with anti-FLAG, mass spectrometry; N-FLAG B3GNT2
Procedure: as §1, §2

[5] = target: T6, LTF (UniProt P02788 20-710, limits assumed); assay: as above
T6 construct: Protein found in the co-IP by mass spectrometry; also called NP_001308051.1
T6 sequence (P02788 20-710 limits assumed): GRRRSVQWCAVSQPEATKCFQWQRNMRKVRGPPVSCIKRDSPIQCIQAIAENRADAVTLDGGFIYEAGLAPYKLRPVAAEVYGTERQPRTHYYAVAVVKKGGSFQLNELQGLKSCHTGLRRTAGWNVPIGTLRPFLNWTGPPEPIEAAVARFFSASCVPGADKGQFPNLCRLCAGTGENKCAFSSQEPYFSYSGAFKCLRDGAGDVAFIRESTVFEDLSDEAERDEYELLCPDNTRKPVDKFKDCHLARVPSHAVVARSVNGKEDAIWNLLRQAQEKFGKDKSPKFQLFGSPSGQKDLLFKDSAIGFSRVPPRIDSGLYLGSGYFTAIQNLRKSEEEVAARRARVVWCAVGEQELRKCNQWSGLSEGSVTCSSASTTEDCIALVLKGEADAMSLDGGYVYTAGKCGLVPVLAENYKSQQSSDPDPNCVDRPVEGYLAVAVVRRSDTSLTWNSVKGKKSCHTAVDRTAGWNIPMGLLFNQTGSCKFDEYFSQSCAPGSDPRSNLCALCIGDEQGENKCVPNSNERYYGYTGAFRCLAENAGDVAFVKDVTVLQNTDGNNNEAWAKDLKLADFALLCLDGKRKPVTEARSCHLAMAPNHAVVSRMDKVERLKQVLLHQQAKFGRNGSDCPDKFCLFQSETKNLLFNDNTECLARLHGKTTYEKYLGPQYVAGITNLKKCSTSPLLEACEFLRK
Procedure: as §1, §2

[6] = target: T1, EEF1A1; assay: as above
Procedure: as §1, §2

[7] = target: T7, HBA1 (UniProt P69905 2-142); assay: as above
T7 construct: Protein found in the co-IP by mass spectrometry; also called NP_000549.1
T7 sequence (P69905 2-142 limits assumed): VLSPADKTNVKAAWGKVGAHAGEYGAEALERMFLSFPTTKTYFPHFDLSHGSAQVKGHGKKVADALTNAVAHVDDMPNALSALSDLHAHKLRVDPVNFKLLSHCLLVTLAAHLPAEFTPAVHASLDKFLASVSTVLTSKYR
Procedure: as §1, §2

[8] = target: RPL10A (UniProt P62906 2-217); assay: as above
Procedure: as §1, §2

[9] = target: RPL21 (UniProt P46778 2-160); assay: as above
Procedure: as §1, §2

[10] = target: T2, HNRNPF; assay: as above
Procedure: as §1, §2

[11] = target: T8, YBX3 (UniProt P16989 2-372, limits assumed); assay: as above
T8 construct: Endogenous protein found in the co-IP by mass spectrometry; also called XP_016875611.1 (+1)
T8 sequence (P16989 2-372 limits assumed): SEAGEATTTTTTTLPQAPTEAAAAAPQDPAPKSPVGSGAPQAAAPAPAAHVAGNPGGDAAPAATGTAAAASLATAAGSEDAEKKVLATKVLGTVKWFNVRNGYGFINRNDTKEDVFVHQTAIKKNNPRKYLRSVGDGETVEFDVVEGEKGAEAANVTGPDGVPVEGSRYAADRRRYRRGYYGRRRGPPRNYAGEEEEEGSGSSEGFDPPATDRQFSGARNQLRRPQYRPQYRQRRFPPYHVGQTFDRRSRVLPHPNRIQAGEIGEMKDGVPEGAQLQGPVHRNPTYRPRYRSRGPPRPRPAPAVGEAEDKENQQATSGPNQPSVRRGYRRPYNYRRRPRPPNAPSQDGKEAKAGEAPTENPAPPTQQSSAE
Procedure: as §1, §2

[12] = target: T9, TPI1 (UniProt P60174 2-249); assay: as above
T9 construct: Endogenous protein found in the co-IP by mass spectrometry; also called NP_000356.1 (+2)
T9 sequence (P60174 2-249 limits assumed): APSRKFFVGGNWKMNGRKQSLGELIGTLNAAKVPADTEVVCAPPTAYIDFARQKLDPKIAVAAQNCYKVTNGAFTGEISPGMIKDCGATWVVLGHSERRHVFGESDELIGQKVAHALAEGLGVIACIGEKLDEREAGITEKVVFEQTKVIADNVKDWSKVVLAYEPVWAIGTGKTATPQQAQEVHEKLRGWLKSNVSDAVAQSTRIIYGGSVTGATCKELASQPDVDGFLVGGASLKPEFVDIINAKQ
Procedure: as §1, §2

Row | Binder | co-IP mass spectrometry count (N-term FLAG) [1] | co-IP mass spectrometry count (N-term FLAG) [2] | co-IP mass spectrometry count (N-term FLAG) [3] | co-IP mass spectrometry count [4] | co-IP mass spectrometry count [5] | co-IP mass spectrometry count [6] | co-IP mass spectrometry count [7] | co-IP mass spectrometry count [8] | co-IP mass spectrometry count [9] | co-IP mass spectrometry count [10] | co-IP mass spectrometry count [11] | co-IP mass spectrometry count [12]
1 | N-terminal FLAG tagged B3GNT2 (enzyme, human, UniProt Q9NY97 1-397, looked up, FLAG-tagged ORF overexpressed in A375 cells; bait of the co-IP with mouse anti-FLAG; also called N-FLAG B3GNT2; N-term FLAG; not shown: N-terminal FLAG tag) MSVGRRRIKLLGILMMANVFIYFIMEVSKSSSQEKNGKGEVIIPKEKFWKISTPPEAYWNREQEKLNRQYNPILSMLTNQTGEAGRLSNISHLNYCEPDLRVTSVVTGFNNLPDRFKDFLLYLRCRNYSLLIDQPDKCAKKPFLLLAIKSLTPHFARRQAIRESWGQESNAGNQTVVRVFLLGQTPPEDNHPDLSDMLKFESEKHQDILMWNYRDTFFNLSLKEVLFLRWVSTSCPDTEFVFKGDDDVFVNTHHILNYLNSLSKTKAKDLFIGDVIHNAGPHRDKKLKYYIPEVVYSGLYPPYAGGGGFLYSGHLALRLYHITDQVHLYPIDDVYTGMCLQKLGLVPEKHKGFRTFDIEEKNKNNICSYVDLMLVHSRKPQEMIDIWSQLQSAHLKC | 0 | 9 | 5 | – | – | – | – | – | – | – | – | –
2 | N-terminal FLAG tagged B3GNT2 (enzyme, human, UniProt Q9NY97 1-397, looked up, FLAG-tagged ORF overexpressed in cells; bait of the anti-FLAG co-IP; also called N-FLAG B3GNT2; N-term FLAG; not shown: FLAG tag at the N-terminus) MSVGRRRIKLLGILMMANVFIYFIMEVSKSSSQEKNGKGEVIIPKEKFWKISTPPEAYWNREQEKLNRQYNPILSMLTNQTGEAGRLSNISHLNYCEPDLRVTSVVTGFNNLPDRFKDFLLYLRCRNYSLLIDQPDKCAKKPFLLLAIKSLTPHFARRQAIRESWGQESNAGNQTVVRVFLLGQTPPEDNHPDLSDMLKFESEKHQDILMWNYRDTFFNLSLKEVLFLRWVSTSCPDTEFVFKGDDDVFVNTHHILNYLNSLSKTKAKDLFIGDVIHNAGPHRDKKLKYYIPEVVYSGLYPPYAGGGGFLYSGHLALRLYHITDQVHLYPIDDVYTGMCLQKLGLVPEKHKGFRTFDIEEKNKNNICSYVDLMLVHSRKPQEMIDIWSQLQSAHLKC | – | – | – | 0 | 8 | 13 | 3 | 6 | 8 | 0 | 0 | 3
